Experimental data reported in publication PMC3814758, “The Geminin and Idas Coiled Coils Preferentially Form a Heterodimer That Inhibits Geminin Function in DNA Replication Licensing*” (The Journal of Biological Chemistry, 2013).
Blank lines part the entries; values can stand above or below the binder they belong to.

Experiments:
Cdt1 (115-353) [1] = biological target: Cdt1 (115-353) (UniProt Q9H211); assay: ITC; 25 °C; 25 mM HEPES/NaOH pH 7.5, 150 mM NaCl, 0.5 mM Tris(2-carboxyethyl)phosphine; 28 injections of 10 μl of the protein dimers (2-80 μM) into 1.4 ml of Cdt1 (0.2-10 μM)
Cdt1 (115-353) [2] = biological target: T1, Cdt1 (115-353) (UniProt Q9H211 115-353); assay: ITC
T1 chain: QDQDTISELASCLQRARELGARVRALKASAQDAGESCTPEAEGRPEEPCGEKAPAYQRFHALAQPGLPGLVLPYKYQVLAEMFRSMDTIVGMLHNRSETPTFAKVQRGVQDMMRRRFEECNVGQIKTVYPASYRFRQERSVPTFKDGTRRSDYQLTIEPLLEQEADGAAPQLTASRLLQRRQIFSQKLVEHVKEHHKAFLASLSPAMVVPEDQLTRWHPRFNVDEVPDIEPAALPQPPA

Cdt1 (115-353) [3] = biological target: Cdt1 (115-353) (UniProt Q9H211)
[4] = biological target: the molecule itself; assay: SAXS; purified complexes at three concentrations each (0.5, 1.0, 2.5 mg/ml tGeminin-tGeminin; 1.0, 2.0, 6.0 mg/ml tIdas-tIdas and tIdas-tGeminin); X13 beamline, EMBL-Hamburg; Guinier plot and distance distribution
Cdt1 (115-353) [5] = biological target: T2, Cdt1 (115-353) (UniProt Q9H211 115-353); assay: ITC; 25 °C; 25 mM HEPES/NaOH pH 7.5, 150 mM NaCl, 0.5 mM Tris(2-carboxyethyl)phosphine; 28 injections of 10 μl of the protein dimers (2-80 μM) into 1.4 ml of Cdt1 (0.2-10 μM); conditions: both partners purified
T2 construct: Cdt1, residues 115-353 (methods, twice); the results print 113-353; The limits differ between the methods (115-353) and the results (113-353); also called tCdt1; truncated Cdt1; source: expressed from the pCOLDNKI-His-TF-3C-LIC-amp vector, purified
T2 sequence (looked up): T1 chain

Cdt1 (115-353) [6] = biological target: T2, Cdt1 (115-353); assay: cell-based or functional assay

Kd (Cdt1 (115-353) [1]): 3.5 nM | Kd (Cdt1 (115-353) [2]): 2.6 nM | IC50 of inhibition of replication licensing and DNA replication of sperm DNA in Xenopus egg extract (Cdt1 of the extract), increasing concentrations of the dimer (Cdt1 (115-353) [3]): 50 nM
B1: tGeminin-tGeminin homodimer (complex)
chain: TQESFDLMIKENPSSQYWKEVAEKRRKALYEALKENEKLHKEIEQKDNEIARLKKENKELAEVAEHVQYMAELIERLNG

Kd (Cdt1 (115-353) [5]): ~35 nM | dH less favourable than for tGeminin-tGeminin binding to Cdt1 (Cdt1 (115-353) [5]): 21.1 kcal/mol | IC50 of inhibition of replication licensing and DNA replication of sperm DNA in Xenopus egg extract (Cdt1 of the extract), increasing concentrations of the dimer (Cdt1 (115-353) [6]): ~720 nM
B3: tIdas-tGeminin heterodimer (complex)
chain 1: PDVPPPEQYWKEVADQNQRALGDALVENNQLHVTLTQKQEEIASLKERNVQLKELASRTRHLASVLDKLMITQ
chain 2: B1 chain
notes: Idas (Multicilin), residues 173-245; Geminin, human, residues 82-160; Preformed heterodimer; also called tGeminin-tIdas; Idas-Geminin heterodimer; source: co-expression in Escherichia coli, purified (IMAC by the His tag on Idas, size exclusion chromatography); copies: 1 + 1

Continued, binder first:

B2: tGeminin, coiled-coil domain of Geminin (residues 82-160) (domain or fragment, human, UniProt O75496 82-160, looked up)
chain: B1 chain
notes: Geminin, human, residues 82-160 (coiled-coil construct tGeminin); Single chain, used for the rows of tGeminin with itself and with tIdas; Cloned both with a cleavable His tag and without tag; In the co-expressed complex the tag was on Idas; source: expressed on its own, or co-expressed with Idas in Escherichia coli; purified
stoichiometry N [4]: 2

B4: tIdas, coiled-coil domain of Idas (residues 173-245) (domain or fragment, UniProt D6RGH6 173-245, looked up)
chain: B3 chain 1
notes: Idas (Multicilin), residues 173-245 (coiled-coil construct tIdas); Single chain, used for the rows of tIdas with itself and with tGeminin; Cleavable His tag; also called Multicilin; source: expressed on its own, or co-expressed with Geminin in Escherichia coli; purified
stoichiometry N [4]: 2
